Results: patent US20240287172A1 (SCIRHOM, published 2024)

T1: hiR2-FL-H505R-T7 (human, UniProt Q6PJF5 1-856)
T1 sequence: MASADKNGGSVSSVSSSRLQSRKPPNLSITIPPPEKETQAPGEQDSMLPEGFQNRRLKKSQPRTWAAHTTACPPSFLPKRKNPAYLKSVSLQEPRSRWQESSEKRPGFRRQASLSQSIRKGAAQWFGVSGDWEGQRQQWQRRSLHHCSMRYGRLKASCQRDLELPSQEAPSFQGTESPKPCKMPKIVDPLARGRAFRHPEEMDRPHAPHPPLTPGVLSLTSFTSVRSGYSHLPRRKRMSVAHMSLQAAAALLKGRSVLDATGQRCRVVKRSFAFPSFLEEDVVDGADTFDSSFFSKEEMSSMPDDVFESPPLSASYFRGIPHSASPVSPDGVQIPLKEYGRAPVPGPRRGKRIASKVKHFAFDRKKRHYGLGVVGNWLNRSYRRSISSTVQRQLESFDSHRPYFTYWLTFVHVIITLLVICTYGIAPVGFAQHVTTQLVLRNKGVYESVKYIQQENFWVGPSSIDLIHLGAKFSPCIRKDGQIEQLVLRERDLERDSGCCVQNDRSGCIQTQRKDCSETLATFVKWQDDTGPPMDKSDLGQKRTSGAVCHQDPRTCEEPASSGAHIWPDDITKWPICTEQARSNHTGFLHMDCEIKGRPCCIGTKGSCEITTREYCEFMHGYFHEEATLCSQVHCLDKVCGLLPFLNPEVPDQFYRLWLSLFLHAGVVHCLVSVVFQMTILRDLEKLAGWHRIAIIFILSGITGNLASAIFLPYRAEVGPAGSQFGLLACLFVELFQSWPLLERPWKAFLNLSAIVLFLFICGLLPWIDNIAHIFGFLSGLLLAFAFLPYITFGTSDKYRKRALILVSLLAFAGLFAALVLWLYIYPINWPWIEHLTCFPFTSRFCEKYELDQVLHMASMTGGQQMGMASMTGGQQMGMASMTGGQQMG

T2: hiR2-FL-K536A-T7 (human, UniProt Q6PJF5 1-856)
T2 construct: on MEF-DKO cells
T2 sequence: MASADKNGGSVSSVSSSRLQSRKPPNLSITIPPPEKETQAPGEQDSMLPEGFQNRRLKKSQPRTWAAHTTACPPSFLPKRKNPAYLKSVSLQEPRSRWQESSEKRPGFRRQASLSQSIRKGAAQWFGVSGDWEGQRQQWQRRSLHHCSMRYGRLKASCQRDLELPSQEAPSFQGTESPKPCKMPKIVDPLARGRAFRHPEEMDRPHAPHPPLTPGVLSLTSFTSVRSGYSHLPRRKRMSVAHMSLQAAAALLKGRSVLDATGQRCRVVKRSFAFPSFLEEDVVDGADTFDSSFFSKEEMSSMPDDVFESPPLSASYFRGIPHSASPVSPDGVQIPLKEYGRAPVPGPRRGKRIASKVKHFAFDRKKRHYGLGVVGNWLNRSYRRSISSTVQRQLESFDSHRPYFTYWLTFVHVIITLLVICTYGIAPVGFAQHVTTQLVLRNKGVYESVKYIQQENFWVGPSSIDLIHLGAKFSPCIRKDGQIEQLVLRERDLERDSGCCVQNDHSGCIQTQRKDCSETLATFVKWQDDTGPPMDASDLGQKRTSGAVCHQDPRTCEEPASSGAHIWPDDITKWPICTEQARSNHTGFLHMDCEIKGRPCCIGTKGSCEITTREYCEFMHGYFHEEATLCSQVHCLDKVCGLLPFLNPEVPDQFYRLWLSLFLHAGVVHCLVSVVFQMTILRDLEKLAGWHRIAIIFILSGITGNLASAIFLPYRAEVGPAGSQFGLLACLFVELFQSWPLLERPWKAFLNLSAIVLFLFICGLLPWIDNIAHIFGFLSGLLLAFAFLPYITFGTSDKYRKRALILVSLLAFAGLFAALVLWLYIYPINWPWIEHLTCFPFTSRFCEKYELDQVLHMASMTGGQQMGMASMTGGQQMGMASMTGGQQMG

T3: hiR2-FL-G546A-T7 (human, UniProt Q6PJF5 1-856)
T3 sequence: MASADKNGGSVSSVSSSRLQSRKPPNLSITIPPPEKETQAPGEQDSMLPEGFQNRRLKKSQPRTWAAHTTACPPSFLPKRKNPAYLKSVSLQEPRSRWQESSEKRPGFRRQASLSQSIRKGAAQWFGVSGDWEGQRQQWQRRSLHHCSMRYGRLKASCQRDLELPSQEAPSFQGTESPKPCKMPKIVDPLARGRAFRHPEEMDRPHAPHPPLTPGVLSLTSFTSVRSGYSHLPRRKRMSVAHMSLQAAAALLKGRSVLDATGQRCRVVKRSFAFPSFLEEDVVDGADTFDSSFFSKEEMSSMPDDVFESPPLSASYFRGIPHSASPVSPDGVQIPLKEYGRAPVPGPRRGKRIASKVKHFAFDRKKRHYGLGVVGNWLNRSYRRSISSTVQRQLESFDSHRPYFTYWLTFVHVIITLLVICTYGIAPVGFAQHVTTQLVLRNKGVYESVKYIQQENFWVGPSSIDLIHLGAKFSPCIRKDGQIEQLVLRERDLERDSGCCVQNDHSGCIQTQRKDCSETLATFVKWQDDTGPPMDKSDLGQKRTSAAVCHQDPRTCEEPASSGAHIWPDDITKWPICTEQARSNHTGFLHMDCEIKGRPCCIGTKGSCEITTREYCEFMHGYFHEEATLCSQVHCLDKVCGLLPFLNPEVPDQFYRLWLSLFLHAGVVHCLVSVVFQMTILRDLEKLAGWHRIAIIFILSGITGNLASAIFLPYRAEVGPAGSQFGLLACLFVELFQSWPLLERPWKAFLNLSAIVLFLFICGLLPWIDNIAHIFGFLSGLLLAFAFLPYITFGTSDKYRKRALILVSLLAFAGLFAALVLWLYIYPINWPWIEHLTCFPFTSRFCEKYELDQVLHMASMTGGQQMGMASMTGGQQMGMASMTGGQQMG


Tests used:
hiR2-FL-H505R-T7 = molecular target: T1, hiR2-FL-H505R-T7; assay: FACS on MEF-DKO cells
hiR2-FL-K536A-T7 = molecular target: T2, hiR2-FL-K536A-T7; assay: FACS on MEF-DKO-hiR2-FL-K536A-T7 cells
hiR2-FL-G546A-T7 = molecular target: T3, hiR2-FL-G546A-T7; assay: FACS on MEF-DKO cells

Binder	binding result (hiR2-FL-H505R-T7)	binding result (hiR2-FL-K536A-T7)	binding result (hiR2-FL-G546A-T7)
antibody 50 (antibody, V domains shown, mouse IgG, kappa light chain; also called clone #50; purified antibody 50) VH: QVQLQQSGAELVRPGASVKVSCKASGYAFSNYLIEWVKQRPGQGLEWIGVINPGSGFTKYNEKFKGKATLTADKSSSTAYMQLSSLTSEDSAVYFCARGLYRAMDYWGQGTSVTVSS VL: DIQMTQSPASQSASLGESVTITCLASQTIGTWLAWYQQKPGKSPQLLIYAAASLADGVPSRFSGGGSGTKFSFKISSLQAEDFVNYYCQQIYSTPYTFGGGTKLEIK	no binding (tested: 3 µg/ml)		
antibody 5 (antibody, V domains shown, mouse IgG, kappa light chain; also called clone #5; purified antibody 5) VH: QVTLKESGPGILQPSQTLSLTCSFSGFSLSTFGMGVGWIRQPSGKGLEWLAHIWWDDEKYYNSALKSRLTISKATSKNQAFLKIANVDTADTATYYCARISNYGSNYWYFNVWGTGTTVTVSS VL: QVVLTQSPALMSASPGEKVTMTCSAGSSVSCMYWYQQKPGSSPRVLIYDTSNLASGVPARFTGSGSGTSYSLTISRMEAEDAASYYCQQWNSYPLTFGAGTKLELK		no binding (tested: 3 µg/ml)	no binding (tested: 3 µg/ml)
